Results on four molecules are retold here after article PMC6677831, “X-ray Crystallographic Structure and Oligomerization of Gloeobacter Rhodopsin” (Scientific Reports, 2019).

The target of data set [1] is Mastigocladopsis repens halorhodopsin (Mastigocladopsis repens). As to the kind of experiment: not stated; unpublished observation of the authors.
In data set [2] the target is T1, Gloeobacter rhodopsin (GR) (Gloeobacter violaceus, UniProt Q7NP59).
T1 construct: gene gll0198; wild type, C-terminal 6xHis tag, expressed in E. coli C43(DE3) with added retinal; 33 kDa; monomer at pH 3.0, pentamer at pH 8.0 in DDM
As to the kind of experiment: X-ray crystal structure, […] A. Type of data set: binding. The settings on record: covalent, protonated Schiff base at Lys257; dark state; bicelle crystals, pH 3.4, 100 K.

Data set [3] deals with the molecule itself. As to the kind of experiment: SEC; Superdex 200 10/300 GL; 20 mM Tris-HCl pH 8.0, 300 mM NaCl, 0.04% DDM. (In gel filtration, larger molecules generally elute earlier.)
Data set [4] deals with the molecule itself. Kind of data set: DEER spectroscopy; Q-band, 80 K, 20% deuterated glycerol, GR-67R1 in detergent micelles at pH 8.0; distances between spin labels of protomers.

For the molecule “Mastigocladopsis repens halorhodopsin (natural protein)”, the stoichiometry N (as a rule, a count of units in the complex or per binding partner) in data set [1] turned out to be 3.

Regarding `CC1=C(/C=C/C(C)=C/C=C/C(C)=C/C=O)C(C)(C)CCC1` [all-trans-retinal], in data set [2], the “X-ray crystal structure, 2.0 A” value is recorded as “the all-trans-retinal chromophore is covalently bound to the opsin protein moiety via a Schiff base”.

B1: Gloeobacter rhodopsin (natural protein, Gloeobacter violaceus PCC 7421)
chain: MLMTVFSSAPELALLGSTFAQVDPSNLSVSDSLTYGQFNLVYNAFSFAIAAMFASALFFFSAQALVGQRYRLALLVSAIVVSIAGYHYFRIFNSWDAAYVLENGVYSLTSEKFNDAYRYVDWLLTVPLLLVETVAVLTLPAKEARPLLIKLTVASVLMIATGYPGEISDDITTRIIWGTVSTIPFAYILYVLWVELSRSLVRQPAAVQTLVRNMRWLLLLSWGVYPIAYLLPMLGVSGTSAAVGVQVGYTIADVLAKPVFGLLVFAIALVKTKADQESSEPHAAIGAAANKSGGSLIS
modifications: all-trans-retinal covalently bound to Lys257 via a protonated Schiff base
notes: Gloeobacter rhodopsin (GR), light-driven proton pump of Gloeobacter violaceus PCC 7421; 33 kDa; Membrane protein in detergent micelles (0.04% DDM) in the oligomerisation experiments; also called GR; wild-type GR; source: E. coli C43(DE3), purified (TALON Co2+ column, Superdex 200) in OG or DDM
As for B1, in data set [3], the binding result is given as “binds”.

B2: spin-labeled GR-67R1 (natural protein, Gloeobacter violaceus PCC 7421)
chain: MLMTVFSSAPELALLGSTFAQVDPSNLSVSDSLTYGQFNLVYNAFSFAIAAMFASALFFFSAQALVCQRYRLALLVSAIVVSIAGYHYFRIFNSWDAAYVLENGVYSLTSEKFNDAYRYVDWLLTVPLLLVETVAVLTLPAKEARPLLIKLTVASVLMIATGYPGEISDDITTRIIWGTVSTIPFAYILYVLWVELSRSLVRQPAAVQTLVRNMRWLLLLSWGVYPIAYLLPMLGVSGTSAAVGVQVGYTIADVLAKPVFGLLVFAIALVKTKADQESSEPHAAIGAAANKSGGSLIS
modifications: R1 nitroxide side chain at Cys67; all-trans-retinal bound to Lys257 via a Schiff base
notes: Gloeobacter rhodopsin (GR) of Gloeobacter violaceus PCC 7421 with G67C, spin-labeled at 67; also called spin labeled G67C mutant of GR
Regarding B2, the “stoichiometry N” value in data set [4] turned out to be 5.
